We go through 11 molecules from paper PMC9922994, “Comprehensive screening strategy coupled with structure-guided engineering of L-threonine aldolase from Pseudomonas putida for enhanced catalytic efficiency towards L-threo-4-methylsulfonylphenylserine” (Frontiers in Bioengineering and Biotechnology, 2023).

As usually defined, the Km is the substrate concentration at which the rate is half of its maximum. By kcat is commonly meant the maximal rate divided by the concentration of active sites. The term kcat/Km denotes the turnover number divided by the Michaelis constant.

Data set [1] deals with T1, NCC(=O)O.
T1 construct: E. coli BL21(DE3); HisTrap, Resource Q, Superdex 200
Briefly: purified protein. To be noted: glycine varied 2.5-50 mM, co-substrate 4-methylsulfonylbenzaldehyde, PLP, HEPES-NaOH pH 8.0, 30 °C. Type of data set: biochemical, Pseudomonas putida.

Substrate in data set [2]: NCC(=O)O
Briefly: purified protein. Type of data set: biochemical, Pseudomonas putida. Conditions: glycine varied 2.5-50 mM, co-substrate 4-methylsulfonylbenzaldehyde, PLP, HEPES-NaOH pH 8.0, 30 °C.

Regarding L-PpTA (Pseudomonas putida KT2440; A9L), in data set [1], the Michaelis-Menten constant (Km) is recorded as 14.6 mM, the kcat was determined as 7.7 s⁻¹ and the specificity constant (kcat/Km) came out at 530 M⁻¹ s⁻¹.

In the case of L-PpTA (Pseudomonas putida KT2440; A9V), in data set [1], the Km turned out to be 13.8 mM, the catalytic constant (kcat) stood at 7.2 s⁻¹ and the kcat/Km amounted to 520 M⁻¹ s⁻¹.

For the molecule “L-PpTA (Pseudomonas putida KT2440; E147D)”, in data set [1], the Km was determined as 15.1 mM, the kcat turned out to be 6.5 s⁻¹ and the kcat/Km was found to be 430 M⁻¹ s⁻¹.

As for “L-PpTA (Pseudomonas putida KT2440; H133N)”, in data set [1], the Km was determined as 12.8 mM, the kcat came out at 12.7 s⁻¹ and the kcat/Km came to 990 M⁻¹ s⁻¹.

“L-PpTA (Pseudomonas putida KT2440; H133W)”: in data set [1], the Km is 12.9 mM, the kcat stood at 12.3 s⁻¹ and the specificity constant (kcat/Km) came to 950 M⁻¹ s⁻¹.

For the molecule “L-PpTA (Pseudomonas putida KT2440; H133Y)”, in data set [1], the Km was found to be 22.6 mM, the kcat was 12.5 s⁻¹ and the kcat/Km turned out to be 550 M⁻¹ s⁻¹.

As to “L-PpTA (Pseudomonas putida KT2440; Y13C)”, in data set [1], the Km came to 24.7 mM, the kcat is 13.9 s⁻¹ and the kcat/Km was 560 M⁻¹ s⁻¹.

Take “L-PpTA (Pseudomonas putida KT2440; Y13K)”: in data set [1], the Km is 19.6 mM, the turnover number (kcat) worked out at 10.4 s⁻¹ and the kcat/Km is 530 M⁻¹ s⁻¹.

Take “L-PpTA (Pseudomonas putida KT2440; Y312E)”: in data set [1], the Km was 25.3 mM, the catalytic constant (kcat) was 15.3 s⁻¹ and the kcat/Km is 600 M⁻¹ s⁻¹.

For “L-PpTA (Pseudomonas putida KT2440; Y312R)”, in data set [1], the Km is 20.1 mM, the turnover number (kcat) was determined as 12.2 s⁻¹ and the kcat/Km was 610 M⁻¹ s⁻¹.

B1: L-PpTA (Pseudomonas putida KT2440) (protein)
chain: MTDKSQQFASDNYSGICPEAWVAMEKANRGHDRAYGDDQWTERASEYFRNLFETDCEVFFAFNGTAANSLALASLCQSYHSVICSETAHVETDECGAPEFFSNGSKLLTAASVNGKLTPQSIREVALKRQDIHYPKPRVVTITQATEVGTVYRPDELKAISATCKELGLNLHMDGARFTNACAFLGCSPAELTWKAGVDVLCFGGTKNGMAVGEAILFFNRQLAEDFDYRCKQAGQLASKMRFLSAPWVGLLEDGAWLRHGNHANHCAQLLASLVSDLPGVELMFPVEANGVFLQMPEHAIEALRGKGWRFYTFIGSGGARFMCSWDTEEARVRELAADIRTIIGG
notes: E. coli BL21(DE3); HisTrap, Resource Q, Superdex 200
In the case of B1, in data set [2], the Michaelis-Menten constant (Km) was 17.4 mM, the kcat stood at 7.1 s⁻¹ and the kcat/Km turned out to be 410 M⁻¹ s⁻¹.
